The text below walks through data of article PMC11910503, “Novel metal sites revealed by spectroscopic and structural characterization of the ferric uptake regulator from Acidithiobacillus ferrooxidans”.

Data set [1] has as its target Ferric Uptake Regulator from Acidithiobacillus ferrooxidans (AfFur), wild type, N-terminal His-tag (Acidithiobacillus ferrooxidans ATCC 23270). The experiment in a line: SDS-PAGE and western blot; purified His-tagged AfFur on SDS-PAGE (Coomassie, Figure S2) and western blot with anti-6x His tag antibody (Figure S3); dimer. A general note: A western blot detects proteins with antibodies after separation by electrophoresis.

The target is the same in data set [2]. In words: SEC; size-exclusion chromatography of AfFur, data not shown; dimer in solution.
Data set [3] deals with T1, AfFur H91D (Acidithiobacillus ferrooxidans ATCC …, UniProt B7J425 1-158, H91D).
T1 sequence: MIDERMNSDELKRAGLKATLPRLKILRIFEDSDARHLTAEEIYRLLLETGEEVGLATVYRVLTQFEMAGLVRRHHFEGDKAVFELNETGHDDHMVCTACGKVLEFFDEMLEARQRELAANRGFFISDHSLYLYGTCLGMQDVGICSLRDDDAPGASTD
In words: EMSA; 0.1 mM Mn2+, 5 mM Mg2+; lost with cold probe; 10 mM Tris pH 7.5, 50 mM KCl, 5 mM MgCl2, 0.1 mM MnCl2, 1 mM DTT, 2.5% glycerol, 50 ng/uL poly(dI-dC), 0.05% NP-40; 20 fmol probe, 2.9-3.9 ug protein in 20 uL. To be noted: protein: recombinant; tags: N-terminal His6 (pLATE51); chain copies: 2; label: 5' biotin. In general terms: In EMSA bound probe runs differently from free probe, usually more slowly.

The target of data set [4] is T2, AfFur E104K (Acidithiobacillus ferrooxidans ATCC …, UniProt B7J425 1-158, E104K).
T2 sequence: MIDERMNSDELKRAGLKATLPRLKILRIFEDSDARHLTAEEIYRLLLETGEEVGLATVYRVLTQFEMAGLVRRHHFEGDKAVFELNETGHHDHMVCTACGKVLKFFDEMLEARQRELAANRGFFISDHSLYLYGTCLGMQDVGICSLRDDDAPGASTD
The description is as above. To be noted: protein: recombinant; tags: N-terminal His6 (pLATE51); chain copies: 2; label: 5' biotin.

The target in data set [5] is T3, AfFur C96A (Acidithiobacillus ferrooxidans ATCC …, UniProt B7J425 1-158, C96A).
T3 sequence: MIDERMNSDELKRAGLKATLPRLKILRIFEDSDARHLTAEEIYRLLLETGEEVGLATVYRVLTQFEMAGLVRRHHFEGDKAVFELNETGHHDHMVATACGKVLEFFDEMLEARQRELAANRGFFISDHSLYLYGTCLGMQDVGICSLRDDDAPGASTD
The experiment in a line: EMSA; 0.1 mM Mn2+, 5 mM Mg2+; also no shift + EDTA; 10 mM Tris pH 7.5, 50 mM KCl, 5 mM MgCl2, 0.1 mM MnCl2, 1 mM DTT, 2.5% glycerol, 50 ng/uL poly(dI-dC), 0.05% NP-40; 20 fmol probe, 2.9-3.9 ug protein in 20 uL. The note with it: protein: recombinant; tags: N-terminal His6 (pLATE51); chain copies: 2; label: 5' biotin.

Data set [6] addresses T4, AfFur C136A (Acidithiobacillus ferrooxidans ATCC …, UniProt B7J425 1-158, C136A).
T4 sequence: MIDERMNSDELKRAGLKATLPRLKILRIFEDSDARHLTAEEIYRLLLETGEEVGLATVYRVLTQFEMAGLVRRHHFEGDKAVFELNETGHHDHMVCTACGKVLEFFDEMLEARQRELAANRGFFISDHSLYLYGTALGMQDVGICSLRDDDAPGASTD
Described as above. The note with it: protein: recombinant; tags: N-terminal His6 (pLATE51); chain copies: 2; label: 5' biotin.

Data set [7] has as its target T5, AfFur C99A (Acidithiobacillus ferrooxidans ATCC …, UniProt B7J425 1-158, C99A).
T5 sequence: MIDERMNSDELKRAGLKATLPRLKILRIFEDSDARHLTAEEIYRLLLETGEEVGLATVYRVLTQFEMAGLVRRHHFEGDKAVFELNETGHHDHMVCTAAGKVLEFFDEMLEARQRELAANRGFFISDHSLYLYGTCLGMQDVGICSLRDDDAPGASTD
Described as above. The note with it: protein: recombinant; tags: N-terminal His6 (pLATE51); chain copies: 2; label: 5' biotin.

Data set [8] concerns the target T6, AfFur C145A (Acidithiobacillus ferrooxidans ATCC …, UniProt B7J425 1-158, C145A).
T6 sequence: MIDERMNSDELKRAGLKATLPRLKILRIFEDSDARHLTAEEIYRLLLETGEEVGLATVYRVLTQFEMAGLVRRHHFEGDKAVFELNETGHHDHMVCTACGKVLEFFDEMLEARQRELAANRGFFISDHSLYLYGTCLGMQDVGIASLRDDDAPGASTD
The data set is described as above. The note with it: protein: recombinant; tags: N-terminal His6 (pLATE51); chain copies: 2; label: 5' biotin.

The target in data set [9] is T7, AfFur C145W (Acidithiobacillus ferrooxidans ATCC …, UniProt B7J425 1-158, C145W).
T7 sequence: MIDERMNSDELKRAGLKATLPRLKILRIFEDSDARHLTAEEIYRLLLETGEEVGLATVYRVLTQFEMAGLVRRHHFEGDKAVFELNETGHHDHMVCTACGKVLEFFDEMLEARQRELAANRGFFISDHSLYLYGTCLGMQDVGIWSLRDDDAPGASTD
The description is as above. The note with it: protein: recombinant; tags: N-terminal His6 (pLATE51); chain copies: 2; label: 5' biotin.

In data set [10] the target is T8, AfFur H93A (Acidithiobacillus ferrooxidans ATCC …, UniProt B7J425 1-158, H93A).
T8 sequence: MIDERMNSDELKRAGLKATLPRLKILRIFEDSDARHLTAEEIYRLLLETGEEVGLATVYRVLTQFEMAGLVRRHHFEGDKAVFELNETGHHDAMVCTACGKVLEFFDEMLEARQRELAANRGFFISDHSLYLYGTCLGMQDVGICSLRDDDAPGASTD
In words: EMSA; 0.1 mM Mn2+, 5 mM Mg2+; 10 mM Tris pH 7.5, 50 mM KCl, 5 mM MgCl2, 0.1 mM MnCl2, 1 mM DTT, 2.5% glycerol, 50 ng/uL poly(dI-dC), 0.05% NP-40; 20 fmol probe, 2.9-3.9 ug protein in 20 uL. To be noted: protein: recombinant; tags: N-terminal His6 (pLATE51); chain copies: 2; label: 5' biotin.

Data set [11] deals with T9, AfFur WT (Acidithiobacillus ferrooxidans ATCC …, UniProt B7J425 1-158).
T9 sequence: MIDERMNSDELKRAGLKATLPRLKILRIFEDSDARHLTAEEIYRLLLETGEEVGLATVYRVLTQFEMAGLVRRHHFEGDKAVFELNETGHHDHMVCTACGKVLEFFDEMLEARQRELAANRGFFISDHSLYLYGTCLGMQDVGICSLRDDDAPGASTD
The experiment in a line: EMSA; holo, 0.1 mM Mn2+, 5 mM Mg2+; shift lost with 200-fold cold probe; 10 mM Tris pH 7.5, 50 mM KCl, 5 mM MgCl2, 0.1 mM MnCl2, 1 mM DTT, 2.5% glycerol, 50 ng/uL poly(dI-dC), 0.05% NP-40; 20 fmol probe, 2.9-3.9 ug protein in 20 uL. The note with it: protein: recombinant; tags: N-terminal His6 (pLATE51); chain copies: 2; label: 5' biotin.

In data set [12] the target is T10, AfFur E84A (Acidithiobacillus ferrooxidans ATCC …, UniProt B7J425 1-158, E84A).
T10 sequence: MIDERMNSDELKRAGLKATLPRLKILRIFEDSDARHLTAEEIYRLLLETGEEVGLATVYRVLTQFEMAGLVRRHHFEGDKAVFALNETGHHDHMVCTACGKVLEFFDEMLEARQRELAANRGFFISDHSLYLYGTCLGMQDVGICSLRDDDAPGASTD
In words: EMSA; 0.1 mM Mn2+, 5 mM Mg2+; shift persists with cold probe; 10 mM Tris pH 7.5, 50 mM KCl, 5 mM MgCl2, 0.1 mM MnCl2, 1 mM DTT, 2.5% glycerol, 50 ng/uL poly(dI-dC), 0.05% NP-40; 20 fmol probe, 2.9-3.9 ug protein in 20 uL. To be noted: protein: recombinant; tags: N-terminal His6 (pLATE51); chain copies: 2; label: 5' biotin.

The target of data set [13] is T11, AfFur H91K (Acidithiobacillus ferrooxidans ATCC …, UniProt B7J425 1-158, H91K).
T11 sequence: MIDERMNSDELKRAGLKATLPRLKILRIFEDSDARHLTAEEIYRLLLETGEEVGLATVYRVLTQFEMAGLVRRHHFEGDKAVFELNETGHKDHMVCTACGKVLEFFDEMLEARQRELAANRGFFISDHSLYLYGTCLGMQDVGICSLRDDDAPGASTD
The data set is described as above. The note with it: protein: recombinant; tags: N-terminal His6 (pLATE51); chain copies: 2; label: 5' biotin.

A word on the stoichiometry N: it is the number of molecules, sites or subunits per partner or assembly. For “Ferric Uptake Regulator from Acidithiobacillus ferrooxidans (AfFur), wild type, N-terminal His-tag (natural protein)”, the stoichiometry N in data set [1] and in [2] was 2 each time.

B1: Bio-MntH-Fur-box (dsDNA)
DNA 1: GGCATCAATAAACGGGAATCATTCTCGTCTACC
DNA 2: GGTAGACGAGAATGATTCCCGTTTATTGATGCC
For B1, the binding result was “binds” in data set [3]; “binds” in data set [4]; “no binding” in [5]; “no binding” in data set [6]; “no binding” in [7]; “no binding” in data set [8]. For the same molecule, the binding result in data set [9] is given as “no binding”; in data set [10], “no binding”; in data set [11], “binds”; in data set [12], “binds”; in data set [13], “binds”.
